Results taken from article PMC7193532 (Acta Crystallographica. Section D, Structural Biology, 2020).

How the values were obtained:
Assay in all cases: SPR
ecumicin (ECU) = settings: read off a plot
rufomycin I (RUF-I) = settings: read off a plot
ohmyungsamycin A (OMS-A) = settings: read off a plot
[1] = molecular target: ClpC1-FL mutant L92S/L96P (Mycobacterium tuberculosis) (UniProt P9WPC9)
[2] = molecular target: ClpC1-FL mutant V14A (Mycobacterium tuberculosis) (UniProt P9WPC9)
[3] = molecular target: ClpC1-NTD N-terminal mutant MVFER (Mycobacterium tuberculosis) (UniProt P9WPC9)
[4] = molecular target: ClpC1-FL mutant K85A (Mycobacterium tuberculosis) (UniProt P9WPC9)
[5] = molecular target: ClpC1-FL mutant Q17A (Mycobacterium tuberculosis) (UniProt P9WPC9)
[6] = molecular target: ClpC1-NTD N-terminal mutant FER (residues 2-145) (Mycobacterium tuberculosis) (UniProt P9WPC9)
[7] = molecular target: ClpC1-NTD MAFER (Mycobacterium tuberculosis) (UniProt P9WPC9)

For “ClpC1-NTD (SPR construct, His6-SUMO tag cleaved) (from UniProt P9WPC9) MVFER (Val inserted before Phe2)”, the Kd (ecumicin (ECU); parent: est. 51 nM) was 4.1 µM.
Work on “full-length ClpC1 (ClpC1-FL) (from UniProt P9WPC9) Q17A” yielded a Kd (rufomycin I (RUF-I); parent: est. 87 nM) of 1400 nM and a Kd (ohmyungsamycin A (OMS-A); parent: est. 350 nM) of 1.3 µM.
For “ClpC1-NTD (SPR construct, His6-SUMO tag cleaved) (from UniProt P9WPC9) MAF (MAFER: Ala inserted before Phe2)”, the Kd (ecumicin (ECU); parent: est. 51 nM) was 3.8 µM and the Kd (ohmyungsamycin A (OMS-A); parent: est. 400 nM) was 9.6 µM.
In the case of “full-length ClpC1 (ClpC1-FL) (from UniProt P9WPC9) V14A”, the Kd (rufomycin I (RUF-I); parent: est. 87 nM) is reported as 630 nM and the Kd (ohmyungsamycin A (OMS-A); parent: est. 350 nM) is reported as 1.6 µM.
Work on “full-length ClpC1 (ClpC1-FL) (from UniProt P9WPC9) K85A” yielded a Kd (ecumicin (ECU); parent: est. 68 nM) of 0.58 µM, a Kd (rufomycin I (RUF-I); parent: est. 87 nM) of 420 nM and a Kd (ohmyungsamycin A (OMS-A); parent: est. 350 nM) of 1.6 µM.
With “ClpC1-NTD (SPR construct, His6-SUMO tag cleaved) (from UniProt P9WPC9) AAFER (Met1Ala mutation and Ala insertion)” the Kd (ecumicin (ECU); parent: est. 51 nM) was 3.3 µM, the Kd (rufomycin I (RUF-I); parent: est. 68 nM) was 1200 nM and the Kd (ohmyungsamycin A (OMS-A); parent: est. 400 nM) was 9.2 µM.
Work on “ClpC1-NTD (SPR construct, His6-SUMO tag cleaved) (from UniProt P9WPC9) MVAFER (ValAla inserted before Phe2)” yielded a Kd (rufomycin I (RUF-I); parent: est. 68 nM) of 900 nM.
Work on “ClpC1-NTD (SPR construct, His6-SUMO tag cleaved) (from UniProt P9WPC9) M1del (FER)” yielded a Kd (rufomycin I (RUF-I); parent: est. 68 nM) of 360 nM and a Kd (ohmyungsamycin A (OMS-A); parent: est. 400 nM) of 4.9 µM.
Work on “full-length ClpC1 (ClpC1-FL) (from UniProt P9WPC9) L92S; L96P” yielded a Kd (rufomycin I (RUF-I); parent: est. 87 nM) of 260 nM.
With rufomycin I (RUF-I) (peptide) the fold reduction in binding affinity against wild type [1] was 3 fold, the fold reduction in binding affinity against wild type [2] was 8 fold and the fold reduction in binding affinity against wild type [3] was 6 fold. For the same substance, the fold reduction in binding affinity against wild type [4] was 5 fold, the fold reduction in binding against wild type [5] was 17 fold and the fold reduction in binding against wild type [6] was 5 fold.
In the case of ecumicin (peptide), the Kd [7] is reported as 3.5 µM.
